Laboratory results: patent US20190016815A1 (TRACON PHARMACEUTICALS, published 2019)
Residue numbers refer to the chain shown, from its start.

T1: human CD105 (R&D Systems Cat. No. 1097-EN) (human, UniProt P17813 26-586)
T1 construct: Bought protein, captured on the plate by mouse anti-human CD105 (Southern Biotechnologies 9811-01); also called human endoglin
T1 sequence (looked up): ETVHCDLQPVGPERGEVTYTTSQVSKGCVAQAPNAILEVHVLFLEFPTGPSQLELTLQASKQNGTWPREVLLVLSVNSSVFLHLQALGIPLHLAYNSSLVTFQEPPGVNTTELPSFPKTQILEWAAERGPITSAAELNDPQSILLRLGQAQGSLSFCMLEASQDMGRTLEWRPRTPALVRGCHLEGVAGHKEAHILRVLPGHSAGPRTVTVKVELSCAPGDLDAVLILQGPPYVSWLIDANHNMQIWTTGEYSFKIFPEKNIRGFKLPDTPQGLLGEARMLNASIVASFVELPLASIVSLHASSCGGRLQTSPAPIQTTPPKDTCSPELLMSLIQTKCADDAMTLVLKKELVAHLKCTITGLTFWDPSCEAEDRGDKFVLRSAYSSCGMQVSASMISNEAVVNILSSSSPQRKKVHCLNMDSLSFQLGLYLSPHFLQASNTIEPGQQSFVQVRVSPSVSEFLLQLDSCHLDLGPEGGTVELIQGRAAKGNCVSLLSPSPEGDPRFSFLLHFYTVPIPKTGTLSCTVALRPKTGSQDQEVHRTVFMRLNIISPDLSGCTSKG

B1: human BMP9 (R&D Systems Cat. No. 3209-BP-010) (ligand, UniProt Q9UK05 320-429, looked up)
chain: SAGAGSHCQKTSLRVNFEDIGWDSWIIAPKEYEAYECKGGCFFPLADDVTPTKHAIVQTLVHLKFPTKVGKACCVPTKLSPISVLYKDDMGVPTLKYHYEGMSVAECGCR
notes: Bought protein
B2: TRC205 antibody (antibody, IgG4, V domains shown)
VH: EVQLVESGGGLVKPGGSLRLSCAASGFTFSDAWMDWVRQAPGKGLEWVGEARSKASNHATYYAESVKGRFTISRDDSKNTLYLQMNSLKTEDTAVYYCTRWRRFFDSWGQGTLVTVSS
VL: DIQMTQSPSSLSASVGDRATITCRASSSVSYMHWYQQKPGKAPKPWAYATSNLASGVPSRFSGSGSGTDYTLTISSLQPEDFATYYCQQWSSNPLTFGGGTKVEIK
notes: IgG4); Biotinylated with a Lightning-Link kit for the direct ELISA and as the labelled tracer; also called biotinylated TRC205; unlabelled TRC205
B3: VK2ASVH1R (antibody, V domains shown)
VH: B2 VH with A51I, K54R
VL: B2 VL with M4L, A47I, T50S
B4: VK2SSVH1R (antibody, V domains shown)
VH: B2 VH with A51I, K54R
VL: B2 VL with M4L, A19V, T22S, A47I, T50S
B5: VK2ASVH1A (antibody, V domains shown)
VH: B2 VH with G49A, A51I
VL: B2 VL with M4L, A47I, T50S

How the values were obtained:
[1] = biological target: T1, human CD105 (R&D Systems Cat. No. …); test: competition ELISA on captured human CD105; human BMP9 against biotinylated TRC205 (55 ng/ml)
Description: (§1) After washing three times with PBST, a three-fold dilution series of either human BMP9 (R&D Systems Cat. No. 3209-BP-010) (413 nM to 0.56 nM), or unlabelled TRC205 antibody (40 nM to 0.05 nM) or a single concentration of an irrelevant antibody (66 nM) was mixed with a fixed concentration of biotinylated TRC205 antibody (55 ng/ml) and added to the plate. Following incubation for 1 hour at room temperature, the plate was washed three times with PBST and binding of the biotinylated TRC205 antibody was detected using streptavidin-HRP (Sigma Cat. No. 55512) and TMB substrate (Sigma Cat. No. T0440). OD450 nm values were measured on a Dynex MRX TCII plate reader.

[2] = biological target: T1, human CD105 (R&D Systems Cat. No. …); test: competition ELISA on captured human CD105; unlabelled TRC205 against biotinylated TRC205 (55 ng/ml)
Description: as §1

[3] = biological target: T1, human CD105 (R&D Systems Cat. No. …); test: competition ELISA on human CD105 captured on the plate (100 ng/ml); competitor: biotinylated chimeric anti-CD105 at 6.25 ng/ml; streptavidin-HRP, TMB, OD450
Description: FIGS. 6A-6F. Anti-CD105 competition ELISA with humanized and humanized/deimmunized antibodies. […] Binding was detected via streptavidin-HRP and TMB substrate. Absorbance (OD) at 450 nm was measured on a plate reader and this was plotted against the test antibody concentration. FIG. 6A provides the results from the chimeric control compared to VK1VH1, VK1VH2, VK2VH1 and VK2VH2. FIG. 6B provides the results from the chimeric control compared to VK1VH1, VK2AVH1A, VK2SAVH1Q, VK2SAVH1R and VK2SAVH1S. FIG. 6C provides the results from the chimeric control compared to VK2AAVH1A2, VK2ASVH1A2, VK2ASVH1Q, VK2SSVH1A and VK2SSVH1Q. FIG. 6D provides the results from the chimeric control compared to VK2VH1, VK2AAVH1A, VK2AAVH1Q, VK2AAVH1R and VK2AAVH1S. FIG. 6E provides the results from the chimeric control compared to VK2VH1, VK2ASVH1A, VK2ASVH1R, VK2ASVH1S, and VK2SAVH1A2. FIG. 6F provides the results from the chimeric control compared to VK2VH1, VK2SSVH1Q, VK2SSVH1A2, VK2SSVH1R and VK2SSVH1S.
Antibodies were tested in a competition ELISA for binding to CD105 against biotinylated chimeric anti-CD105. Briefly, chimeric anti-CD105 was biotinylated using a micro-biotinylation kit (Sigma, Catalog No. BTAG-1KT) following the manufacturer's instructions. […] Binding of the biotinylated chimeric antibody was detected via streptavidin-HRP (Sigma, Catalog No. 55512) and TMB substrate (Sigma, Catalog No. T0440). OD450 nm values were measured on a Dynex MRX TCII plate reader. The results of the competition analysis are illustrated in FIG. 6.

Row | Binder | binding result [3] | also measured
1 | B1 |  | IC50 [1]: 0.35 µg/mL
2 | B2 |  | IC50 [2]: 0.26 µg/mL
3 | B3 | binds | 
4 | B4 | binds | 
5 | B5 | binds | 
